Data on 94 variants can be found in the supplement of paper PMC10567573.

The labels stand for the following.
B1: ETS2 (parent)
chain: TSGKRYVYRFVCDLQNLLGFTPEE
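Also: lentivirally expressed fusions sorted by FACS into six bins by GFP to DsRed ratio, PSI derived from sequencing read proportions per bin multiplied by bin number.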

Variants of B1 are the subject of this data set. The data set is described as follows: protein stability index of a GFP-peptide fusion (GPS, HEK-293T) (PSI 1-6); higher = more stable. The note with it: c terminus: a fixed tail appended.
For TSGKRYVYRFNCDLQNLLGFTPEE [V11N], the protein stability index is 2.67.

For TSGKRYVYRFFCDLQNLLGFTPEE [V11F], the protein stability index was determined as 2.56.

TSGKRYVYRFMCDLQNLLGFTPEE [V11M]: the protein stability index was found to be 2.85.

For the variant TSGKRYVYRFICDLQNLLGFTPEE [V11I], the protein stability index was 2.64.

TSGKRYVYRFQCDLQNLLGFTPEE [V11Q]: the protein stability index turned out to be 1.94.

As for TSGKRYVYRFHCDLQNLLGFTPEE [V11H], the protein stability index is 2.07.

With TSGKRYVYRFSCDLQNLLGFTPEE [V11S], the protein stability index came to 2.02.

Consider TSGKRYVYRFACDLQNLLGFTPEE [V11A], for which the protein stability index was 3.07.

As for TSGKRYVYRFKCDLQNLLGFTPEE [V11K], the protein stability index was found to be 2.15.

Turning to TSGKRYVYRFYCDLQNLLGFTPEE [V11Y], the protein stability index was found to be 2.14.

On to TSGKRYVYRFRCDLQNLLGFTPEE [V11R], for which the protein stability index was 1.57.

TSGKRYVYRFPCDLQNLLGFTPEE [V11P]: the protein stability index came to 2.85.

For TSGKRYVYRFCCDLQNLLGFTPEE [V11C], the protein stability index came out at 3.14.

Consider TSGKRYVYRFWCDLQNLLGFTPEE [V11W], for which the protein stability index was 2.14.

On to TSGKRYVYRFDCDLQNLLGFTPEE [V11D], for which the protein stability index was determined as 2.59.

In the case of TSGKRYVYRFTCDLQNLLGFTPEE [V11T], the protein stability index was found to be 2.36.

On to TSGKRYVYRFECDLQNLLGFTPEE [V11E], for which the protein stability index worked out at 2.61.

As to TSGKRYVYRFLCDLQNLLGFTPEE [V11L], the protein stability index turned out to be 2.82.

For TSGKRYVYFFVCDLQNLLGFTPEE [R9F], the protein stability index was 1.06.

Turning to TSGKRYVYDFVCDLQNLLGFTPEE [R9D], the protein stability index came to 1.66.

For the variant TSGKRYVYCFVCDLQNLLGFTPEE [R9C], the protein stability index came out at 1.53.

In the case of TSGKRYVYNFVCDLQNLLGFTPEE [R9N], the protein stability index is 1.77.

Consider TSGKRYVYPFVCDLQNLLGFTPEE [R9P], for which the protein stability index stood at 2.48.

Consider TSGKRYVYIFVCDLQNLLGFTPEE [R9I], for which the protein stability index came to 1.68.

On to TSGKRYVYQFVCDLQNLLGFTPEE [R9Q], for which the protein stability index was found to be 1.72.

As for TSGKRYVYSFVCDLQNLLGFTPEE [R9S], the protein stability index came to 1.92.

As for TSGKRYVYVFVCDLQNLLGFTPEE [R9V], the protein stability index was 2.4.

TSGKRYVYWFVCDLQNLLGFTPEE [R9W]: the protein stability index is 1.96.

TSGKRYVYEFVCDLQNLLGFTPEE [R9E]: the protein stability index stood at 1.78.

As to TSGKRYVYKFVCDLQNLLGFTPEE [R9K], the protein stability index was determined as 1.85.

Consider TSGKRYVYLFVCDLQNLLGFTPEE [R9L], for which the protein stability index came to 1.48.

For TSGKRYVYGFVCDLQNLLGFTPEE [R9G], the protein stability index is 1.58.

Regarding TSGKRYVYYFVCDLQNLLGFTPEE [R9Y], the protein stability index is 1.79.

For the variant TSGKRYVYTFVCDLQNLLGFTPEE [R9T], the protein stability index was 2.15.

As to TSGKRYVYAFVCDLQNLLGFTPEE [R9A], the protein stability index is 1.45.

With TSGKRYVYHFVCDLQNLLGFTPEE [R9H], the protein stability index was 1.65.

Consider TSGKRYVYMFVCDLQNLLGFTPEE [R9M], for which the protein stability index was 3.

For the variant TSGKRYVVRFVCDLQNLLGFTPEE [Y8V], the protein stability index is 2.5.

Consider TSGKRYVGRFVCDLQNLLGFTPEE [Y8G], for which the protein stability index was found to be 2.15.

Take TSGKRYVLRFVCDLQNLLGFTPEE [Y8L]: the protein stability index is 1.75.

For TSGKRYVMRFVCDLQNLLGFTPEE [Y8M], the protein stability index turned out to be 2.93.

Turning to TSGKRYVIRFVCDLQNLLGFTPEE [Y8I], the protein stability index was determined as 2.56.

As for TSGKRYVFRFVCDLQNLLGFTPEE [Y8F], the protein stability index turned out to be 1.55.

TSGKRYVERFVCDLQNLLGFTPEE [Y8E]: the protein stability index is 2.67.

Take TSGKRYVPRFVCDLQNLLGFTPEE [Y8P]: the protein stability index was found to be 2.28.

In the case of TSGKRYVTRFVCDLQNLLGFTPEE [Y8T], the protein stability index is 2.29.

For the variant TSGKRYVQRFVCDLQNLLGFTPEE [Y8Q], the protein stability index stood at 2.02.

As to TSGKRYVHRFVCDLQNLLGFTPEE [Y8H], the protein stability index was determined as 2.15.

On to TSGKRYVDRFVCDLQNLLGFTPEE [Y8D], for which the protein stability index was determined as 2.78.

With TSGKRYVWRFVCDLQNLLGFTPEE [Y8W], the protein stability index turned out to be 2.01.

Consider TSGKRYVCRFVCDLQNLLGFTPEE [Y8C], for which the protein stability index is 1.35.

For TSGKRYVKRFVCDLQNLLGFTPEE [Y8K], the protein stability index amounted to 2.11.

For the variant TSGKRYVRRFVCDLQNLLGFTPEE [Y8R], the protein stability index turned out to be 2.23.

Consider TSGKRYVSRFVCDLQNLLGFTPEE [Y8S], for which the protein stability index turned out to be 2.23.

Consider TSGKRYVARFVCDLQNLLGFTPEE [Y8A], for which the protein stability index came to 2.12.

Regarding TSGKRYVNRFVCDLQNLLGFTPEE [Y8N], the protein stability index turned out to be 3.26.

Regarding TSGKRYVYRKVCDLQNLLGFTPEE [F10K], the protein stability index came to 3.16.

Turning to TSGKRYVYRSVCDLQNLLGFTPEE [F10S], the protein stability index amounted to 3.37.

As to TSGKRYVYRLVCDLQNLLGFTPEE [F10L], the protein stability index is 1.8.

With TSGKRYVYRAVCDLQNLLGFTPEE [F10A], the protein stability index stood at 2.02.

As to TSGKRYVYRTVCDLQNLLGFTPEE [F10T], the protein stability index worked out at 2.26.

As for TSGKRYVYRCVCDLQNLLGFTPEE [F10C], the protein stability index turned out to be 2.06.

With TSGKRYVYRQVCDLQNLLGFTPEE [F10Q], the protein stability index is 2.7.

Consider TSGKRYVYRIVCDLQNLLGFTPEE [F10I], for which the protein stability index was 2.02.

Consider TSGKRYVYREVCDLQNLLGFTPEE [F10E], for which the protein stability index was 2.75.

With TSGKRYVYRRVCDLQNLLGFTPEE [F10R], the protein stability index was 3.5.

With TSGKRYVYRWVCDLQNLLGFTPEE [F10W], the protein stability index worked out at 2.42.

With TSGKRYVYRPVCDLQNLLGFTPEE [F10P], the protein stability index was found to be 2.59.

As to TSGKRYVYRNVCDLQNLLGFTPEE [F10N], the protein stability index stood at 3.32.

Turning to TSGKRYVYRYVCDLQNLLGFTPEE [F10Y], the protein stability index came to 3.17.

Turning to TSGKRYVYRMVCDLQNLLGFTPEE [F10M], the protein stability index is 2.06.

Turning to TSGKRYVYRHVCDLQNLLGFTPEE [F10H], the protein stability index amounted to 2.04.

Consider TSGKRYVYRDVCDLQNLLGFTPEE [F10D], for which the protein stability index worked out at 3.9.

As for TSGKRYVYRGVCDLQNLLGFTPEE [F10G], the protein stability index was 2.57.

Regarding TSGKPYVYRFVCDLQNLLGFTPEE [R5P], the protein stability index was found to be 1.52.

As for TSGKKYVYRFVCDLQNLLGFTPEE [R5K], the protein stability index is 3.18.

As to TSGKYYVYRFVCDLQNLLGFTPEE [R5Y], the protein stability index turned out to be 2.88.

As to TSGKDYVYRFVCDLQNLLGFTPEE [R5D], the protein stability index turned out to be 2.05.

As for TSGKNYVYRFVCDLQNLLGFTPEE [R5N], the protein stability index is 3.24.

Take TSGKEYVYRFVCDLQNLLGFTPEE [R5E]: the protein stability index was found to be 1.69.

For the variant TSGKIYVYRFVCDLQNLLGFTPEE [R5I], the protein stability index worked out at 3.19.

Consider TSGKGYVYRFVCDLQNLLGFTPEE [R5G], for which the protein stability index is 3.53.

Regarding TSGKSYVYRFVCDLQNLLGFTPEE [R5S], the protein stability index was 2.87.

Take TSGKAYVYRFVCDLQNLLGFTPEE [R5A]: the protein stability index amounted to 2.44.

For TSGKFYVYRFVCDLQNLLGFTPEE [R5F], the protein stability index worked out at 3.19.

Turning to TSGKVYVYRFVCDLQNLLGFTPEE [R5V], the protein stability index was 1.72.

TSGKRDVYRFVCDLQNLLGFTPEE [Y6D]: the protein stability index is 1.52.

Turning to TSGKRIVYRFVCDLQNLLGFTPEE [Y6I], the protein stability index is 4.21.

For TSGKRPVYRFVCDLQNLLGFTPEE [Y6P], the protein stability index turned out to be 2.59.

On to TSGKRRVYRFVCDLQNLLGFTPEE [Y6R], for which the protein stability index turned out to be 2.31.

In the case of TSGKRFVYRFVCDLQNLLGFTPEE [Y6F], the protein stability index was determined as 2.91.

With TSGKRGVYRFVCDLQNLLGFTPEE [Y6G], the protein stability index turned out to be 1.35.

Consider TSGKRTVYRFVCDLQNLLGFTPEE [Y6T], for which the protein stability index came out at 2.3.

On to TSGKRQVYRFVCDLQNLLGFTPEE [Y6Q], for which the protein stability index turned out to be 1.86.
